Source: the DeepSol protein solubility set

Assay: soluble on expression in E. coli; label from the status in PepcDB or PDB records

For “MAQEIELKFIVNHSAVEALRDHLNTLGGEHHDPVQLLNIYYETPDNWLRGHDMGLRIRGENGRYEMTMKVAGRVTGGLHQRPEYNVALSEPTLDLAQLPTEVWPNGELPADLASRVQPLFSTDFYREKWLVAVDGSQIEIALDQGEVKAGEFAEPICELELELLSGDTRAVLKLANQLVSQTGLRQGSLSKAARGYHLAQGNPAREIKPTTILHVAAKADVEQGLEAALELALAQWQYHEELWVRGNDAAKEQVLAAISLVRHTLMLFGGIVPRKASTHLRDLLTQCEATIASAVSAVTAVYSTETAMAKLALTEWLVSKAWQPFLDAKAQGKISDSFKRFADIHLSRHAAELKSVFCQPLGDRYRDQLPRLTRDIDSILLLAGYYDPVVAQAWLENWQGLHHAIATGQRIEIEHFRNEANNQEPFWLHSGKR”, which “soluble on expression in E. coli” value is on record?
Its value is “soluble”.

Which “soluble on expression in E. coli” value does the source give for “MSKLRFRVVETAFKKKAVEVATPAERPSEYFGKYVFNKEKMFKYLPSKVYNALIDAIDNGAPLDRSIADEVAAGMKKWAVEMGVTHYTHWFAPLTEGTAEKHDAFVEHDGKGGMMEEFTGKLLVQQEPDASSFPNGGIRNTFEARGYSAWDPSSPAFIVDDTLCIPTVFIAYTGEALDYKAPLLKALRAVDKAATAVCHYFNPEVKKVVAYLGWEQEYFLVDEGLYAARPDLLMTGRTLMGHDSAKNQQLEDHYFGAIPTRVAAFMKDLEIEALKLGIPVKTRHNEVAPNQFELAPIFEECNLANDHNLLIMSLMRKVSRRHGFRVLLHEKPFKGVNGSGKHNNWSLGTDTGILLMGPGKTPEDNLRFVTFVVNTLMAVYRHNGLLKASISSATNAHRLGANEAPPAIISSFLGKQLSQVLDHIENSTKDDLINLSGKQGMKLDIPQIPELLIDNTDRNRTSPFAFTGNRFEFRAVGSEANCASAMIALNAAVAEQLMKFKKDVDALIEKGEPKVSAILEVIRGYIKECKAIHFDGNGYSDEWKVEAARRGLDCETSVPVIFDNYLKPETIAMFEAIGVMTKKELEARNEVKWETYTKKIQIEARVLGDLAMNHIIPVATQYQTDLINNVYKMQSLFPADKAARLSAKNLELIEEIADRTAFIKEHVDAMIEARKVANKIESEREKAIAYHDTIVPALEEIRYHIDKLELIVDNQMWTLPKYRELLFVR” here?
The value was “soluble”.

Which “soluble on expression in E. coli” value does the source give for “MNKLDTSQLKIASMGGGHGLFQTLRAVRQLNPASIDAIVTVADDGGSSGRIRRELGQIPPGDLRMALAALAPFDDEGLQWETLLQHRFGGHGALAGHAVGNLIIAGLCDTLGSEIAALDAVAKVIKAEGRVLPACAEPLEIAAEVSGLDDDPRIMREVIGQVAVASTPGTVRRVRLIPERPEATEESVEAIENADLVTLGPGSWFSSVIPHVLVPGIPTALATTKALRVVVLNLSPEPGETAGFTAERHIHILSQHAQTLRADVILVDEGLIPHKGERVHLERAAAVLGAQISYHDLSETDPSGRRIHRHDPAKLAEALRLQLLEHHHHHH” here?
Its value is “soluble”.

For “MSLNGQNTISDIGDATEDQIKDVIQIMNDNIDKFLERQERVSLLVDKTSQLNSSSNKFRRKAVNIKEIMWWQKVKNITLLTFTIILEGHHHHHH”, which “soluble on expression in E. coli” value is on record?
Its value is “not soluble”.

Which “soluble on expression in E. coli” value does the source give for “MGSDKIHHHHHHMKYIINHSNDTAFNIALEEYAFKHLLDEDQIFLLWINKPSIIVGRHQNTIEEINRDYVRENGIEVVRRISGGGAVYHDLNNLNYTIISKEDENKAFDFKSFSTPVINTLAQLGVKAEFTGRNDLEIDGKKFCGNAQAYINGRIMHHGCLLFDVDLSVLANALKVSKDKFESKGVKSVRARVTNIINELPKKITVEKFRDLLLEYMKKEYPEMTEYVFSEEELAEINRIKDTKFGTWDWNYGKSPEFNVRRGIKFTSGKVEVFANVTESKIQDIKIYGDFFGIEDVAAVEDVLRGVKYEREDVLKALKTIDITRYFAGISREEIAEAVVG” here?
The value was “soluble”.

With “MTSYEEETDYRNVPRELLDNNIPMGRGMIKWAPFATLPEQFETIQQYIIDQNKITRPVLSDDQLAELNIRLHEALQYAQPVEVKFYNNGFVDSVRLTIYRIDAINYEIDGYVYNQQQRQKISIFDILDIVLLP” as the sequence, how does the “soluble on expression in E. coli” value read?
The value was “not soluble”.

Which “soluble on expression in E. coli” value does the source give for “MSTPIIPWMGGKRRLADRLIPLFPPHECYVEVFAGGAALYFMRPQAAPVEVLNDINGDLVNLYRVVQNHLEEFVRQFKWALSSRQVFEWQKMTRPETLTDIQRAARFFYLQHHAFAGKVSGQTFGTATTGPAINLLRIEENLSAAWQRLSGTYVENLPWLECAERYDRPQTFHYMDPPYWQTAGYGVDYPFENYERMADFMRTCKGKVMVSINDHPDIRRVFEEFHFETVDIRYTSSNQRRGRTDVVGELVIMNWEP” here?
The value was “not soluble”.

With “MHHHHHHSSGVDLGTENLYFQSMRLLRASGRTPEAVQKLLEQGLRHSQDLAFLSMLNDIAAVPATAMPFRGYAVLGGERGGPEVQQVPAGERPLWFICSGMGTQWRGMGLSLMRLDRFRDSILRSDEAVKPFGLKVSQLLLSTDESTFDDIVHSFVSLTAIQIGLIDLLSCMGLRPDGIVGHSLGEVACGYADGCLSQEEAVLAAYWRGQCIKEAHLPPGAMAAVGLSWEECKQRCPPGVVPACHNSKDTVTISGPQAPVFEFVEQLRKEGVFAKEVRTGGMAFHSYFMEAIAPPLLQELKKVIREPKPRSARWLSTSIPEAQWHSSLARTSSAEYNVNNLVSPVLFQEALWHVPEHAVVLEIAPHALLQAVLKRGLKPSCTIIPLMKKDHRDNLEFFLAGIGRLHLSGIDANPNALFPPVEFPAPRGTPLIS” as the sequence, how does the “soluble on expression in E. coli” value read?
The value was “soluble”.

For “MPIPLYLQDWWLDAVCGFDEWMAFVLEEEGTVSGVMPCYMPVPGHISMPPFTQFLGSYSFIGINEDSTTSFRAHRRVHDMLRSMLPPHKSFMVQYSKDFTDWLPYYWQGYSQTTRYTYRIDLSPGIDVVRMAIRPDAMKKIRKAERDGLRCTSATVDDLLRLCRISMSRQEAKGFAAETLQRLAEVAIERHAGEIVGCEDSEGRLLAAVFLAHDHNTAYTIASGQIREGQGRNAGAFVLYEAIWRACEMEGIHTFDFEGSMLEGIEGFFRSFGGIQTPYFRLSKGRIGLYGRLRRKWRAFHDTGQQKQV”, which “soluble on expression in E. coli” value is on record?
Its value is “not soluble”.

With “MADDGLGDVPMETESMPQYTISHVIEAHKSDTKALAVTQGGCLISGGRDETVKFWAKKGKQYTKTHAFEQPKGITVNSIAYAELADGWRLFVGRRDGTIAVFGPSQAEPYAIFNEHKQNVCCLHINEKATHMLSGSWDSNVIIWPITELNSSSFTTIVCPGHTLSVWALASFPDLPNTYLSASADKTIRMWFGDTTLSVFKGHTDVVRALVVLSSSHFLSAGNDGHIIHWDVASASILRKFATQAHEFIYSMTLSDSHILTTGEDGTLEFWAIDGGKDGNLAIVSEAVIQLPTTNTWDAKVLLNSDIAVAGSDGRIYIMTTDKNRKADDDILDAFDAEVVAKLTAKTERMKQEEHETVTIKVDIDDRPTQLNLKYKKGTDPGLCAQEFLSENNLPIHYLEEITRFIKDRIPEARAFDLKSGKKVIVDGKEYDYALGVNFGKGEPDKQMPFNVNESPQFAAQRFVERHQLPVSVIPSLAGMISQEMDKLSKGAASAQSGYEDPFTGPGRYVPQGSSNSGGHGADPFTGSGRYVPQASNSSGFDTGFSGDPLTGDGGYRASAPENTGSHAVPLSSLPQNKKKPRGPLVPVPDFYIIGLAGKGEKAIAKLKELNEKQDAFQLNPDQINGLEELFVLPTSSNYSSEVTQSAFEMSLQWPVEHLTPVLDFLRIALTHHSLNSYFCDRERGQELVGRLIAILVSDPADVALKVLVCRCIANAFSHPVGRNLFASTELSTLAPLVVRQVLNEKTVLQMSAATALANWSLALLQQSEQCEQLGPKEDLLRAILNGIESVDSFGYLGEDAIIRLLQALVTVMWGDASVIRLAKNRNIAQIAARLKDAVSNDSGKNIARDIVEMTYAV” as the sequence, how does the “soluble on expression in E. coli” value read?
Its value is “not soluble”.

For “MSLNNTKQPVVILVGPTAVGKTNLSIQLAKSLNAEIISGDSMQIYKGMDIGTAKITEQEMEGVPHHLIDILDPQDSFSTADYQSLVRNKISEIANRGKLPMIDGGTGLYIQSELYDYTFTEEANDPVFRESMQMAAEREGADFLHAKLAAADPEAAAAIHPNNTRRVIRALEILHTSGKTMSQHLKEQKRELLYNAVLIGLTMDRDTLYERINQRVDLMMQSGLLPEVKRLYDKNVRDCQSIQAIGYKELYAYFDGFVTLSDAVEQLKQNSRRYAKRQLTWFRNKMQVTWFDMTPPVDMELKKKEIFTHIAGKLELEGHHHHHH”, which “soluble on expression in E. coli” value is on record?
The value was “soluble”.

For “MGSDKIHHHHHHMAFRVILIENEVTIKVKLNNLIITKCGEDIWIPLDDISMIVLDNLASNLSTRLMCQLAEQGIGLMLYNQQHLPTGFYSAYDNHSRASKVIGFQIDKEQDYYGKLWQQIVKIKIENQAKAYQIMTRDSDGPEKIIEFSKNILIGDKSNREAHAAKVYFNLLMGTSFSRGNEDILLNSGLDYGYAVIRGYIARACVGYGLNTQIGIHHKSEYNRFNLVDDLMEPLRPIVDIVAYNSMKNDKYFTPEHRRKLVSILNMKIMYREKKMYMCNMIENYIEQYASLIMKRTDNIVFPDVYNLIGEEYG”, which “soluble on expression in E. coli” value is on record?
The value was “not soluble”.

For “MSLKFFPTRTLLCLCIAAPCLPAIAQNDPIELPDIGTVAGSTLTIDQELIYGDAYMRMLRNNQPVINDPVLNEYIDNLGHRLVASANDVKTPFTFFMIRDRNINAFAFFGGYVALHSGLFLHAQSESELASVMAHEIAHVTQRHLARSMEEQARRSPATIAALAGSLLLAIAAPEAGIAAINATMAGSIQGQINYTRSNEKEADRFGIATLAKAGFDANAMPQFFTRLADEYRYASKPPPMLLTHPLPEDRITDSRERARQYPPLKLAPHLDYHLARARIIARYAGIDADAALDWFARSEKKIDATLQPSIQYGKALVYLDLKQFDKAEPLLTQLVKEQPDNHFYLDAISDLYIELKQADKAQSLLEKALKQTPNNSVLTINYANVLLKQDKFTDAIRILQRYTHDNPNDINGWQLLSEANSRLGNSAEDLAARGEIMALQANWNKAIQFYTQASQLVELGSLAQARYDARIDQLMVQRERFLSLQEGGSHHHHHH”, which “soluble on expression in E. coli” value is on record?
The value was “soluble”.

For “MEKQNLPVVVVGAGPVGLAAAAHLVERGIEPLVLEAGASAATAVRDWAHVRLFSPWAEVTDPAAEKLLAPTGWLRPDGATYPTGGDWAERYLQPLADVLGDQVRYGATVTGVARAGRDRIVDSGREEQPFTVHIETADGGEERIAARAVIDAGRRGVRHADRLEHHHHHH”, which “soluble on expression in E. coli” value is on record?
Its value is “soluble”.

For “MGSDKIHHHHHHMVEPMTPRFKYTKASQENIQQLGNILEQCFVMSFGDSEIYVKGIGLENFRVIYREQKVAGGLAILPMGQWWGGQRVPMAGIAAVGIAPEYRGDGAAIALIQHTLQEISEQDIPISVLYPATQRLYRKAGYEQAGSSCVWEIPTDSIQIQHASLPLEPVVLKNNPIFHELYQQQAQLTHGYLDRHPAIWQGLNRTLDTETLYSYLIGDKDKPQGYIIFTQERTRDGSILRIRDWVTLSNPAVQSFWTFIANHRSQIDKVTWKSSVIDALTLLLPEQSATIRSQDRWMLRIVNVCKALEARGYPLGVEAELHLEVQDDLLATNQGKFILSVANGKSEVTKGGKGELQLDIKGLASLYTSLFTPRQLQLTGKLQATETALLKATQIFAGESPWMIDFF”, which “soluble on expression in E. coli” value is on record?
The value was “not soluble”.

Which “soluble on expression in E. coli” value does the source give for “MRYRPVIGLEIHVQLSTKTKAFCSCPADVFELPPNTAICPVCTGQPGALPVPNEEMIRFAVKTALALNCKIHKYSRFDRKNYFYPDLPKGYQISQYFYPIATEGFLEIDGDEGRKKVRIRRLHLEEDAGKLVHEGDSITRASYSLVDMNRCGVPLIEIVTEPDISSPREARVFMEKLRSIVRYLGVSTGDMEKGALRCDANISVVDTETGRQSNRVEVKNMNSFRFVERALEYEFERIVKAMERGEDVERETRGWDMATKITVSMRGKEEESDYRYFPEPDIPPVVLSDEYLEEVKKELPELPDEKAERFMREYGLPEYDAKVLTSSKELAEFFEECVKVVNRPKDLSNWIMTEVLRELNERNIEITESKLTPQHFADLFKLMDEGKISIKIAKEIFPEVFETGKMPSQIVEEKGLTQINDEKLIEELVKKAMEQNPKAVQDYKSGKKKAAGFFVGYVMRETKGKANPELTNRIIQKLLEGE” here?
Its value is “soluble”.

Which “soluble on expression in E. coli” value does the source give for “MSLTTPSKKTLLFDLDGTLVDSFPGIRTSFLHTLHEKNWEIPSEERISQVPGPPMEWTFQDLGMTPEQAQDALQTYLEHYGQVGWDLSEAFPGMRDLLIRLKYEGFRLCTATSKGEFFAEKVLRKFEMFDLFEFMGAATDNGNRRSKSAVIKHVLDSVGLDEPNDILMIGDRSHDIEGSSEFGIDCVAVTWGYGSKTEWDAARYTVSTAEELERIIHDWAEGHHHHHH” here?
Its value is “soluble”.
